Assay [1] concerns the target N-MBP-ORF3-A647 (not stated | Hepatitis E virus genotype 1) (UniProt O90299). As to the kind of experiment: MST.
For assay [2] the target is unchanged. As to the kind of experiment: MST; pH 7.
Assay [3] has the same target. The assay can be described thus: MST; as a7 but at pH 6.0 (pH series), 30 °C.
Assay [4] shares this target. The assay can be described thus: MST; as a7 but at pH 8.0 (pH series), 30 °C.
For assay [5] the target is unchanged. As to the kind of experiment: MST; as a7 but at 35 °C (temperature series), pH 7.
Assay [6] has the same target. As to the kind of experiment: MST; as a7 but at 37 °C (temperature series), pH 7.
Assay [7] has the same target. As to the kind of experiment: MST; as a7 but at 41 °C (temperature series), pH 7.

For orientation: EC50 means the midpoint of the concentration-response curve. Read a low EC50 as an effect from little substance.

In assay [1], N-MBP-Hel (domain or fragment) came in with an EC50 of 87.9 nM.
Still for that read-out and setting: the value for N-MBP-Met (domain or fragment) was 33.7 nM.
In the case of N-MBP-Plp (domain or fragment), the EC50 in assay [1] worked out at 0.3 nM; in assay [2] it was 1.5 nM; in assay [3], 19 nM; in assay [4] it was 6 nM; in assay [5] it was 2.8 nM; in assay [6], 16 nM. Besides, the concentration giving a half-maximal response (EC50) in assay [7] came out at 19 nM.
Turning to N-MBP-Pvx (domain or fragment), the EC50 in assay [1] amounted to 1.6 nM.
Same read-out and setting: the value for N-MBP-X (domain or fragment) was 5.6 nM.

Values taken from publication PMC4604457.
